Measured values taken from the supplement of paper PMC12764529.
± gives the half width of the 95% confidence interval.

Tests used:
[1] = folding stability dG unfold (combined trypsin and chymotrypsin); higher = more stable
Procedure, shortened: (§1)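 Digests were run with trypsin and chymotrypsin at 11 concentrations in threefold dilutions, plus a no-protease condition, on designed mini-proteins in a PA-tagged cDNA display construct. The mini-proteins were under 80 residues, had no cysteine, and were kept only when AlphaFold2 dimer inter-PAE was above 15. After sequencing, Bayesian fitting of the counts gave K50, from which unfolding free energy was derived against a sequence-predicted unfolded-state K50 and a shared folded-state K50, per protease or combined.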

[2] = folding stability dG unfold from trypsin proteolysis; higher = more stable
Procedure, shortened: as §1

[3] = folding stability dG unfold from chymotrypsin proteolysis; higher = more stable
Procedure, shortened: as §1

Row | Sequence | folding stability dG unfold [1] | folding stability dG unfold [2] | folding stability dG unfold [3]
1 | SAGGSAGGSAGGMPVTLNVTVKTKDPDGVAATETVTLTFSSPEEALAAIKAAYPNSTIESAGGSAGGSAGGS [r10_1248_JUSTAS] | 1.15 ± 0.12 kcal/mol | 0.995 ± 0.057 kcal/mol | 1.33 ± 0.061 kcal/mol
2 | SAGGSAGGSAGGMRLVRITTEDGRTITAPVGETITITRPDGSKVKITRVEVFELPPEDLSAGGSAGGSAGGS [r10_20_TrROS_Hall] | 1.23 ± 0.041 kcal/mol | 0.744 ± 0.021 kcal/mol | 1.51 ± 0.025 kcal/mol
3 | SAGGSAGGSAGGMRRVTIWFPIPEDEEITFKLPGNGVEVEIEPDKGNGFFRITVYLPDGSAGGSAGGSAGGS [r10_1138_TrROS] | 1.94 ± 0.098 kcal/mol | 1.42 ± 0.036 kcal/mol | 2.07 ± 0.12 kcal/mol
4 | SAGGSAGGSAGGMTIEINGKKYEIVEVKEEKGKLTLKIKVNGKLLEIEIDKDKNEIKIYPSAGGSAGGSAGG [r7_553_TrROS_Hall] | 3.91 ± 0.14 kcal/mol | 3.44 ± 0.14 kcal/mol | 4.05 ± 0.1 kcal/mol
5 | SAGGSAGGSAGGMTITVVTEESPGPFKTVTVTTTTPLPNGTLATTTTTTFLPVSPDEPVSAGGSAGGSAGGS [r10_241_JUSTAS] | 0.983 ± 0.08 kcal/mol | 1.52 ± 0.044 kcal/mol | 0.208 ± 0.27 kcal/mol
6 | SAGGSAGGSAGGMTLEEVKKALEELGIKEENQTVTIELEDGSKVKITVKDGKVVLEVEPSAGGSAGGSAGGS [r10_604_TrROS_Hall] | 2.54 ± 0.13 kcal/mol | 2.81 ± 0.18 kcal/mol | 2.19 ± 0.1 kcal/mol
7 | SAGGSAGGSAGGMTLRIRVRNKDGKVLEIEVEVDEDKTPEEVARELAKKLNVEKVEIFPSAGGSAGGSAGGS [r10_400_TrROS_Hall] | 2.28 ± 0.13 kcal/mol | 2.2 ± 0.07 kcal/mol | 2.32 ± 0.038 kcal/mol
8 | SAGGSAGGSAGGMTPIEVTVELEEPTRRTTRRFTFTSPEEVEAYLKALPASWRVTRVELRSAGGSAGGSAGG [r17_410_JUSTAS] | 1.66 ± 0.075 kcal/mol | 1.58 ± 0.038 kcal/mol | 1.82 ± 0.15 kcal/mol
9 | SAGGSAGGSAGGMTTVTLTLTTELEVKDPEGKLHRETVTVTVTVPVPPSTLTDTTDLVSSAGGSAGGSAGGS [r10_168_JUSTAS] | 1.91 ± 0.17 kcal/mol | 1.82 ± 0.1 kcal/mol | 2.12 ± 0.054 kcal/mol
10 | SAGGSAGGSAGGMTTVTTLETRPLPDGTTVTREVVTDENGTVVSTTVSRVSPEGVVTAESAGGSAGGSAGGS [r10_1014_JUSTAS] | 0.623 ± 0.055 kcal/mol | -0.0113 ± 0.05 kcal/mol | 0.97 ± 0.025 kcal/mol
11 | SAGGSAGGSAGGMVIRLEDGRTLVFETREEAEEAAKALAEELGLKEVKVEIVEVPLEELPSAGGSAGGSAGG [r7_839_TrROS_Hall] | 2.4 ± 0.045 kcal/mol | 2.11 ± 0.073 kcal/mol | 2.6 ± 0.032 kcal/mol
12 | SAGGSAGGSAGGMVITVPKENLKELIDALRKEGKARIVSVEEKDGLVTITVELEDEELESAGGSAGGSAGGS [r10_695_TrROS_Hall] | 2.95 ± 0.11 kcal/mol | 3.24 ± 0.18 kcal/mol | 2.28 ± 0.075 kcal/mol
13 | SAGGSAGGSAGGMVIVKVHLPNGNTLTFVFPGMTLDEIREELASQGGKIKEIEIVPMENSAGGSAGGSAGGS [r10_572_TrROS] | 2.28 ± 0.079 kcal/mol | 2.17 ± 0.07 kcal/mol | 2.323 ± 0.02 kcal/mol
14 | SAGGSAGGSAGGMVKIKLKNGKWYEAKVTEIDEDGNVVVELPNGKKFTVPAKDLEIEVLPSAGGSAGGSAGG [r7_823_TrROS_Hall] | 3.69 ± 0.11 kcal/mol | 3.77 ± 0.29 kcal/mol | 3.7 ± 0.097 kcal/mol
15 | SAGGSAGGSAGGMVTTLEVTVSPDGVITVTTVTTDAAGTPVTTTTTTTVLGPGGPVLAVSAGGSAGGSAGGS [r10_484_JUSTAS] | 2.03 ± 0.12 kcal/mol | 2.05 ± 0.13 kcal/mol | 2 ± 0.044 kcal/mol
16 | SAGGSAGGSAGGMVVRITTKDGRTITFPPGTSLEELRSLPADEITRVEVVEVEPVRVVEPSAGGSAGGSAGG [r7_190_TrROS_Hall] | 1.75 ± 0.082 kcal/mol | 1.45 ± 0.028 kcal/mol | 1.97 ± 0.051 kcal/mol
17 | SAGGSAGGSAGGMVVRVTKNGTSTEIIVDSEEEAKELLKPLFPDDSEVEIEFVSEEELSSAGGSAGGSAGGS [r10_1167_JUSTAS] | 0.718 ± 0.12 kcal/mol | 0.0397 ± 0.07 kcal/mol | 0.963 ± 0.065 kcal/mol
18 | SAGGSAGGSAGGMYFIRIKPPNGEELVILIPPGDEIKIKDADGRPWKITDVYPMPPEQFSAGGSAGGSAGGS [r10_422_TrROS] | 0.0506 ± 0.41 kcal/mol | -0.17 ± 0.27 kcal/mol | -0.118 ± 0.73 kcal/mol

Row | Sequence | folding stability dG unfold [1] | folding stability dG unfold [2] | folding stability dG unfold [3]
19 | SAGGSAGGSAGGMYRIKVTTKDGRERVIEVKPGEEITLEELRKAGLSEEEIERVEIEEVSAGGSAGGSAGGS [r10_565_TrROS_Hall] | 1.84 ± 0.092 kcal/mol | 1.89 ± 0.076 kcal/mol | 1.85 ± 0.051 kcal/mol
20 | SAGGSAGGSAGGMYRVEIETKGNKKVYIFPNLSPEELAKFLEDPKVVSYKVEKLSPEELESAGGSAGGSAGG [r7_502_JUSTAS] | 2.27 ± 0.08 kcal/mol | 2.04 ± 0.077 kcal/mol | 2.34 ± 0.094 kcal/mol
21 | SAGGSAGGSAGGNEEDIEKAVKEAKEKGENAEVKVTLPNGKEETVYIEVNVKEPSEKLKSAGGSAGGSAGGS [r10_573_JUSTAS] | < -1 kcal/mol | -1.05 ± 0.47 kcal/mol | -1.04 ± 0.22 kcal/mol
22 | SAGGSAGGSAGGNFKITEPVEEYPNPNGNPIKVFTFKNPDDGPEFTFIFMPNGNWQFIPSAGGSAGGSAGGS [r10_1123_TrROS] | 0.77 ± 0.12 kcal/mol | 0.674 ± 0.09 kcal/mol | 0.797 ± 0.14 kcal/mol
23 | SAGGSAGGSAGGNPGGKRQWVMMEFPIPPGKKIELPPNFNVSIFRDNDRLWLMITVDAVKSAGGSAGGSAGG [r7_584_TrROS] | 1.9 ± 0.11 kcal/mol | 1.7 ± 0.07 kcal/mol | 1.88 ± 0.06 kcal/mol
24 | SAGGSAGGSAGGNVITVFIPNYQIITIHLSPEPGRIPIEVYPPNGKKEEWPIPDIKELIQSAGGSAGGSAGG [r7_769_TrROS] | 1.01 ± 0.13 kcal/mol | 1.6 ± 0.13 kcal/mol | -0.306 ± 0.14 kcal/mol
25 | SAGGSAGGSAGGNVRLTVTLDENGRLRVTAEVEVTNENGEKKTYRLTLTLKLKPGQTLTSAGGSAGGSAGGS [r10_763_TrROS_Hall] | 3.55 ± 0.13 kcal/mol | 2.9 ± 0.054 kcal/mol | 3.863 ± 0.024 kcal/mol
26 | SAGGSAGGSAGGNVRNLDISLDPEEGTIKIKATLPENGQTWEITIPVQIPLPPPPPGDNSAGGSAGGSAGGS [r10_331_TrROS] | 0.424 ± 0.29 kcal/mol | 0.49 ± 0.1 kcal/mol | 0.502 ± 0.12 kcal/mol
27 | SAGGSAGGSAGGNWVMIEFNFPPGKKLKIEIPNGRDIQRHRDPDNGTLWFMIPPEAAEDFSAGGSAGGSAGG [r7_155_TrROS] | 0.636 ± 0.27 kcal/mol | 0.649 ± 0.11 kcal/mol | 0.509 ± 0.26 kcal/mol
28 | SAGGSAGGSAGGNYFMMVVLEIRLPPELKGMSPEEWLKKNGYEVTEIEIKGIYPFPPPDGSAGGSAGGSAGG [r7_62_TrROS] | 2.9 ± 0.1 kcal/mol | 2.02 ± 0.12 kcal/mol | 3.31 ± 0.062 kcal/mol
29 | SAGGSAGGSAGGPANLNDEPVLLIPVSSELLKLIPAEKLVELAAKLASPNVKRIYVLAPESAGGSAGGSAGG [r7_487_TrMRF] | 0.424 ± 0.088 kcal/mol | 0.12 ± 0.11 kcal/mol | 0.58 ± 0.13 kcal/mol
30 | SAGGSAGGSAGGPEEPEKLTLRVTLTFYNPETQEPVEEVEVEITLTAEDLKEGKITITPSAGGSAGGSAGGS [r10_672_TrROS_Hall] | 2.32 ± 0.13 kcal/mol | 1.54 ± 0.043 kcal/mol | 2.85 ± 0.07 kcal/mol
31 | SAGGSAGGSAGGPEIELLEDVKPGEFVVIKVKLKDADGNEVTATFVFYNGEWYLTKIEPSAGGSAGGSAGGS [r10_288_TrROS_Hall] | 4.54 ± 0.2 kcal/mol | 2.92 ± 0.14 kcal/mol | 4.73 ± 0.063 kcal/mol
32 | SAGGSAGGSAGGPEVERFRIPGDNVLVEVVRLEDERIARITFPDGSQLTVPLPPGWEAFSAGGSAGGSAGGS [r10_976_TrMRF] | 0.948 ± 0.097 kcal/mol | 0.853 ± 0.031 kcal/mol | 0.851 ± 0.13 kcal/mol
33 | SAGGSAGGSAGGPEVTLRLRLEVEVRVVVLKDGKLEEKTFRFELEVEVRFEPGMSLEELSAGGSAGGSAGGS [r10_633_TrROS_Hall] | 3.91 ± 0.075 kcal/mol | 3.23 ± 0.15 kcal/mol | 4.09 ± 0.086 kcal/mol
34 | SAGGSAGGSAGGPILKITLELSPEEIEELAKALGLKVKKVEKEKNKDGKLRVTIYIELKSAGGSAGGSAGGS [r10_999_TrROS_Hall] | 2.81 ± 0.078 kcal/mol | 2.12 ± 0.085 kcal/mol | 3.24 ± 0.057 kcal/mol
35 | SAGGSAGGSAGGPKTVRIVEYDPETQRVVIELEDGSKVVIEVPPGMSVEELKGKTLTVEPSAGGSAGGSAGG [r7_296_TrROS_Hall] | 1.14 ± 0.17 kcal/mol | 1.79 ± 0.051 kcal/mol | 0.569 ± 0.1 kcal/mol
